These results are taken from article PMC11309785.

Assay in all cases: SPR; ProteOn XPR36, HC30M chip; IgG captured at low density (about 50 to 100 RU) by anti-human IgG (Fc) antibody, trimer flowed as analyte, highest concentration 3 µM; 1x HBS-EP+ pH 7.4 with BSA 1 mg/ml
On the technique in general: In SPR one partner is held on a chip, and binding of the other changes the refractive index at the surface.

Test [1] deals with BG18 inferred germline IgG, Asp at the (D3-3)+2 position (human).
The target of test [2] is BG18 inferred germline IgG, Glu at the (D3-3)+2 position (human).
BG18 inferred germline IgG, Glu at the (D3-3)+2 position (human), sequence (heavy, as listed by the source, chain 1 of 2): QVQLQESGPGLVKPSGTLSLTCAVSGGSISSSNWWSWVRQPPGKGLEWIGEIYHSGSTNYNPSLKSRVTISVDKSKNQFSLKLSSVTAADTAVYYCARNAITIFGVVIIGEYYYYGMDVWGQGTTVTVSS
BG18 inferred germline IgG, Glu at the (D3-3)+2 position (human), sequence (light, as listed by the source, chain 2 of 2): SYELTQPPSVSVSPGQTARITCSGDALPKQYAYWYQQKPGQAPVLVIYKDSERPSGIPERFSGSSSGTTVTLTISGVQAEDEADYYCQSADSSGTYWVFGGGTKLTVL
Test [3] has as its target BG18 inferred germline IgG, Gly at the (D3-3)+2 position (human).

BG18 inferred germline IgG, Asp at the (D3-3)+2 position (human), sequence (heavy, as listed by the source, chain 1 of 2): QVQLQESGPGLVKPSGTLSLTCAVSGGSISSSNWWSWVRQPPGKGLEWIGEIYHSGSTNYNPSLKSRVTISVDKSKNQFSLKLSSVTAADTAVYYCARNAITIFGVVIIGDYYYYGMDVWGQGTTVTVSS
BG18 inferred germline IgG, Asp at the (D3-3)+2 position (human), sequence (light, as listed by the source, chain 2 of 2): as the sequence (light, as listed by the source, chain 2 of 2) above
BG18 inferred germline IgG, Gly at the (D3-3)+2 position (human), sequence (heavy, as listed by the source, chain 1 of 2): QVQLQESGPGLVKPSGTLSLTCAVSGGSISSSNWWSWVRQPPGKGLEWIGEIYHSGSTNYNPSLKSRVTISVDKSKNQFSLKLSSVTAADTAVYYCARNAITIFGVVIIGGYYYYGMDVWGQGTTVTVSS
BG18 inferred germline IgG, Gly at the (D3-3)+2 position (human), sequence (light, as listed by the source, chain 2 of 2): as the sequence (light, as listed by the source, chain 2 of 2) above

A word on the Kd: it is the concentration at which binding is half-saturated. Regarding “N332-GT5 trimer (BG505_MD65_congly_N332-GT5)”, the figures for the dissociation constant Kd in test [1], in test [2] and in test [3] were 39 nM, 0.7 nM and 1790 nM, respectively.
